# Patent publication US6958223 (UNITED STATES SURGICAL, dated 2005)
# B1: D4, 219 amino acid C-terminal fragment of human collagen Type I (α1), hydroxyproline-containing (other)
# chain: MGPPGLAGPPGESGREGAPGAEGSPGRDGSPGAKGDRGETGPAGPPGAPGAPGAPGPVGPAGKSGDRGETGPAGPAGPVGPAGARGPAGPQGPRGDKGETGEQGDRGIKGHRGFSGLQGPPGPPGSPGEQGPSGASGPAGPRGPPGSAGAPGKDGLNGLPGPIGPPGPRGRTGDAGPVGPPGPPGPPGPPGPPSAGFDFSFLPQPPQEKAHDGGRYYRA
# modifications: trans-4-hydroxyproline in place of proline at all proline positions (100% substitution by mass spectrometry and amino acid analysis)
# notes: also called D4-α1; protein D4
# Target: the molecule itself
# Assay: circular dichroism of purified D4 in 0.1M sodium phosphate pH 7.0 after two days at 4° C.; self-association into homotrimeric helices
# Description: The solution was incubated at 4° C. for two days to allow triple helices to form prior to analysis. Spectra were obtained on an Aviv model 62DS spectropolarimeter (Yale University, Molecular Biophysics and Biochemistry Department). A 1 mm path length quartz suprasil fluorimeter cell was used. Following a 10 min. incubation period at 4° C., standard wavelength spectra were recorded from 260 to 190 nm using 10 sec acquisition times and 0.5 nm scan steps. This spectrum is characterized by a negative ellipticity at 198 nm and a positive ellipticity at 221 nm. The magnitudes of both of these absorbances was greater in neutral pH buffer compared to acidic conditions. […] See, e.g., Venugopal et al., Biochemistry, 33, 7948 (1994). Heating at 85° C. for five minutes prior to obtaining the CD spectrum decreased the magnitude of the absorbance at 198 nm and abolished the absorbance at 221 nm (FIG. 33). This behavior is also typical of the triple helical structure of collagen. See, R. S. Bhatnagar et al., Circular Dichroism and the Conformational Analysis of Biomolecules G. D. Fasman, Ed., supra. A thermal melt profile of D4 conducted as above in phosphate buffer gave a melting temperature of about 29° C. […] (See, A. Rossi, et al., Biochemistry 35, 6048 (1996)).
protein,measurement,value
B1,binding result,binds
